Assay results as given in article PMC10874396, “Spatiotemporal and direct capturing global substrates of lysine-modifying enzymes in living cells” (Nature Communications, 2024).

Target: T1, PatZ-L813o-NBAK (E. coli, UniProt P76594 1-886, L813o-NBAK, o-NBAK (o-nitrobenzyl alcohol-derived lysine, unnatural amino acid photo-crosslinker) at 813)
T1 construct: PatZ, protein lysine acetyltransferase of E. coli, amber codon at L813 read as o-NBAK; o-NBAK is a lysine derivative; also called PatZ-L813o-NBAK mutant; o-NBAK encoded enzyme; source: E. coli BL21(DE3), in living cells; also purified (Ni-NTA) for in vitro crosslinking
T1 sequence (looked up): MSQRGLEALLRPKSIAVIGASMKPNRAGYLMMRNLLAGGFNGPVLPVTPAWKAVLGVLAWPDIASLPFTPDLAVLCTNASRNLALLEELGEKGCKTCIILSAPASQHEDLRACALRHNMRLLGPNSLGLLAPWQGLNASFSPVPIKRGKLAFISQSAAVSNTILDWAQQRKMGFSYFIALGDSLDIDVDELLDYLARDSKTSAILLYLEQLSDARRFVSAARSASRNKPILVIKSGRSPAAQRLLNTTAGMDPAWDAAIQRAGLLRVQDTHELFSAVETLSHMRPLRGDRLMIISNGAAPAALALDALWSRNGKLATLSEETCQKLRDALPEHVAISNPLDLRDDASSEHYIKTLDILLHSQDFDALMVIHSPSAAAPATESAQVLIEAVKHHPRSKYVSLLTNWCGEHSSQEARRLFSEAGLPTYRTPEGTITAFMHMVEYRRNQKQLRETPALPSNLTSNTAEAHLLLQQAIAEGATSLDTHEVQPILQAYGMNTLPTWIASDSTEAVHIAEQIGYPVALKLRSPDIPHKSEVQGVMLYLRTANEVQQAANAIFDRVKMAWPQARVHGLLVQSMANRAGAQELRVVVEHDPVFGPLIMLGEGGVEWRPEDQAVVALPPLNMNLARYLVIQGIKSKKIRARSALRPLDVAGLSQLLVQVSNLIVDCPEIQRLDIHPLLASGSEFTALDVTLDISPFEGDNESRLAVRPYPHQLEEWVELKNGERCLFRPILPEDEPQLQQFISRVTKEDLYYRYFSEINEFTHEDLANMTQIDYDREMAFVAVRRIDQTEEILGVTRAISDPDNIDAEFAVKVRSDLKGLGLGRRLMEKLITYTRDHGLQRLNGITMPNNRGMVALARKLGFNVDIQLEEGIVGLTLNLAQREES
Experiment: cross-linking; in vitro: purified o-NBAK enzyme mixed with purified partner protein in PBS 150 mM NaCl pH 7.5, 365 nm UV 15 min on ice, SDS-PAGE, extra band cut, LC-MS/MS of crosslinked peptides
Details: both partners purified

B1: DnaJ (purified recombinant) (natural protein, E. coli, UniProt P08622 1-376, looked up)
chain: MAKQDYYEILGVSKTAEEREIRKAYKRLAMKYHPDRNQGDKEAEAKFKEIKEAYEVLTDSQKRAAYDQYGHAAFEQGGMGGGGFGGGADFSDIFGDVFGDIFGGGRGRQRAARGADLRYNMELTLEEAVRGVTKEIRIPTLEECDVCHGSGAKPGTQPQTCPTCHGSGQVQMRQGFFAVQQTCPHCQGRGTLIKDPCNKCHGHGRVERSKTLSVKIPAGVDTGDRIRLAGEGEAGEHGAPAGDLYVQVQVKQHPIFEREGNNLYCEVPINFAMAALGGEIEVPTLDGRVKLKVPGETQTGKLFRMRGKGVKSVRGGAQGDLLCRVVVETPVGLNERQKQLLQELQESFGGPTGEHNSPRSKSFFDGVKKFFDDLTR
notes: DnaJ, E. coli; may be in the Supplementary Information
  binding result: binds
